Values joined by “and” are separate entries in the source; they are usually repeats but may differ in a detail not shown here. Equal entries are not always repeated.
How the values were obtained:
[1] = target: KLHDC10^41-C-EloB/C with a 10X Histidine tag on EloC (SPR) (UniProt Q6PID8); assay: SPR; Biacore T200; His-tagged KLHDC10 complex captured on Ni-NTA chip (about 300 RU); ubiquitin variants as analytes 2 uM to 0.125 uM, multi-cycle kinetics; 25 mM Tris, 200 mM NaCl, 0.1% Tween20, pH 7.4; 20 °C; 1:1 binding model
KLHDC10(41-C)-EloB/C = KLHDC10(41-C)-EloB/C (UniProt Q6PID8); assay: SPR; Biacore T200; 10xHis-KLHDC10-EloB/C captured on a Ni-NTA chip; UB variants as analytes, 2 uM to 0.125 uM; 25 mM Tris, 200 mM NaCl, 0.1% Tween20, pH 7.4, 20 °C; multi-cycle kinetics, 1:1 binding model; two replicates

“ubiquitin (from UniProt P0CG48 1-76) (natural protein)” was tested, and the Kd [1] was 0.3 µM and the Kd (KLHDC10(41-C)-EloB/C) was 0.319 µM and 0.393 µM.

Reference: paper PMC11568203
